Data from patent publication US5670637, “Nucleic acid ligands” (NeXstar Pharmaceuticals, Inc.).

Biological target: nerve growth factor (NGF) (UniProt P01139 P01139:122-241)
Assay: filter
Conditions: chain copies: 2

nerve growth factor (NGF), sequence (P01139 122-241, one chain of several): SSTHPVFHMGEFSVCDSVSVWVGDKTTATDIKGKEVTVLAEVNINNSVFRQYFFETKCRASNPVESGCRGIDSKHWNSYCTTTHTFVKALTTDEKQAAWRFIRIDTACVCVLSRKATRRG

B1: hsngf.a (ssRNA)
RNA: GGGAGCUCAGAAUAAACGCUCAACUCAUGGAGCGCAAGACGAAUAGCUACAUAUUCGACAUGAGGCCCGGAUCCGGC
Does B1 bind?
Result: binds
